From patent publication US20210238260

Columns and labels:
[1] = target: Factor X (FX), P00742
[2] = target: Factor X, P00742
[3] = target: plasma purified human AT-III (antithrombin III); assay: same assay; ratio to K0.5 of Catalyst Biosciences WT FIXa; from lower limit value
[4] = target: plasma purified human antithrombin III (AT-III), in complex with unfractionated heparin (UFH); assay: ratio of K0.5 for AT-III/UFH inhibition, variant over Catalyst Biosciences WT FIXa
[5] = target: plasma purified human AT-III (antithrombin III), in complex with full-length unfractionated heparin (UFH); assay: ratio of K0.5 of the variant to K0.5 of Catalyst Biosciences WT FIXa, AT-III/UFH inhibition

Sequence of Factor X, P00742 (P00742 whole entry, looked up): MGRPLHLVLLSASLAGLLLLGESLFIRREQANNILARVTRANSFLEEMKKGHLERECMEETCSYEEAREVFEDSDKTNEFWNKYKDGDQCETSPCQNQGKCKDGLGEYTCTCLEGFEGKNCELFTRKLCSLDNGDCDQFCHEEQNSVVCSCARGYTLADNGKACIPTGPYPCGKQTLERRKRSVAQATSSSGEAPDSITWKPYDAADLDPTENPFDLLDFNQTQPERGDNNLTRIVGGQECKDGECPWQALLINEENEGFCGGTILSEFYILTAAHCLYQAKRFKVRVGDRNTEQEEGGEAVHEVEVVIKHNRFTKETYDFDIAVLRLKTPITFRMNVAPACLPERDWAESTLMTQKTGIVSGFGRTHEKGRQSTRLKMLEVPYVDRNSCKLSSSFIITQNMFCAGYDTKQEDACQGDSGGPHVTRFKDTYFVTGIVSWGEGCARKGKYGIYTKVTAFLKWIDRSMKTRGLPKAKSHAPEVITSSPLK
Sequence of Factor X (FX), P00742 (P00742 whole entry, looked up): as above

Protein	KM [1]	kcat of FX activation by FIXa (Xase complex with FVIIIa, PC/PS vesicles, Ca2+) [1]	% of WT kcat/KM [2]	kcat [2]	kcat/KM [2]	K0.5-mut/K0.5-wt [4]	K0.5-mut/K0.5-wt [5]	also measured
FIXa-D104N/K106S/R318Y/R338E/R403E/E410N (protein) chain 1: YNSGKLEEFVQGNLERECMEEKCSFEEAREVFENTERTTEFWKQYVDGDQCESNPCLNGGSCKDDINSYECWCPFGFEGKNCELDVTCNIKNGRCEQFCKNSANNSVVCSCTEGYRLAENQKSCEPAVPFPCGRVSVSQTSKLTR chain 2: VVGGEDAKPGQFPWQVVLNGKVDAFCGGSIVNEKWIVTAAHCVETGVKITVVAGEHNIEETEHTEQKRNVIRIIPHHNYNAAINKYNHDIALLELDEPLVLNSYVTPICIADKEYTNIFLKFGSGYVSGWGRVFHKGYSALVLQYLRVPLVDRATCLESTKFTIYNNMFCAGFHEGGRDSCQGDSGGPHVTEVEGTSFLTGIISWGEECAMKGKYGIYTKVSEYVNWIKNKTKLT								kcat [1]: 5.7 s⁻¹; KM [2]: 0.0385 µM; K0.5-mut/K0.5-wt [3]: > 517
FIXa-Y155F/R318Y/R338E/R403E/E410N (protein) chain 1: YNSGKLEEFVQGNLERECMEEKCSFEEAREVFENTERTTEFWKQYVDGDQCESNPCLNGGSCKDDINSYECWCPFGFEGKNCELDVTCNIKNGRCEQFCKNSADNKVVCSCTEGYRLAENQKSCEPAVPFPCGRVSVSQTSKLTR chain 2: VVGGEDAKPGQFPWQVVLNGKVDAFCGGSIVNEKWIVTAAHCVETGVKITVVAGEHNIEETEHTEQKRNVIRIIPHHNYNAAINKYNHDIALLELDEPLVLNSYVTPICIADKEYTNIFLKFGSGYVSGWGRVFHKGYSALVLQYLRVPLVDRATCLESTKFTIYNNMFCAGFHEGGRDSCQGDSGGPHVTEVEGTSFLTGIISWGEECAMKGKYGIYTKVSEYVNWIKNKTKLT								kcat [1]: 5.3 s⁻¹; KM [2]: 0.0304 µM; K0.5-mut/K0.5-wt [3]: > 517
FIXa-K247N/N249S/N260S/R318Y/R338E/R403E/E410N (protein) chain 1: YNSGKLEEFVQGNLERECMEEKCSFEEAREVFENTERTTEFWKQYVDGDQCESNPCLNGGSCKDDINSYECWCPFGFEGKNCELDVTCNIKNGRCEQFCKNSADNKVVCSCTEGYRLAENQKSCEPAVPFPCGRVSVSQTSKLTR chain 2: VVGGEDAKPGQFPWQVVLNGKVDAFCGGSIVNEKWIVTAAHCVETGVKITVVAGEHNIEETEHTEQNRSVIRIIPHHNYSAAINKYNHDIALLELDEPLVLNSYVTPICIADKEYTNIFLKFGSGYVSGWGRVFHKGYSALVLQYLRVPLVDRATCLESTKFTIYNNMFCAGFHEGGRDSCQGDSGGPHVTEVEGTSFLTGIISWGEECAMKGKYGIYTKVSEYVNWIKNKTKLT	0.0622 µM	3.4 s⁻¹	217%	6 s⁻¹	9.7e+07 M⁻¹ s⁻¹	288 fold		
FIXa-D104N/K106S/K247N/N249S/N260S (protein) chain 1: YNSGKLEEFVQGNLERECMEEKCSFEEAREVFENTERTTEFWKQYVDGDQCESNPCLNGGSCKDDINSYECWCPFGFEGKNCELDVTCNIKNGRCEQFCKNSANNSVVCSCTEGYRLAENQKSCEPAVPFPCGRVSVSQTSKLTR chain 2: VVGGEDAKPGQFPWQVVLNGKVDAFCGGSIVNEKWIVTAAHCVETGVKITVVAGEHNIEETEHTEQNRSVIRIIPHHNYSAAINKYNHDIALLELDEPLVLNSYVTPICIADKEYTNIFLKFGSGYVSGWGRVFHKGRSALVLQYLRVPLVDRATCLRSTKFTIYNNMFCAGFHEGGRDSCQGDSGGPHVTEVEGTSFLTGIISWGEECAMKGKYGIYTKVSRYVNWIKEKTKLT	0.0612 µM	0.6 s⁻¹	22%	0.6 s⁻¹	9.8e+06 M⁻¹ s⁻¹	65.3 fold		
FIXa-A103N/N105S/Y155F/R318Y/R338E/R403E/E410N (protein) chain 1: YNSGKLEEFVQGNLERECMEEKCSFEEAREVFENTERTTEFWKQYVDGDQCESNPCLNGGSCKDDINSYECWCPFGFEGKNCELDVTCNIKNGRCEQFCKNSNDSKVVCSCTEGYRLAENQKSCEPAVPFPCGRVSVSQTSKLTR chain 2: VVGGEDAKPGQFPWQVVLNGKVDAFCGGSIVNEKWIVTAAHCVETGVKITVVAGEHNIEETEHTEQKRNVIRIIPHHNYNAAINKYNHDIALLELDEPLVLNSYVTPICIADKEYTNIFLKFGSGYVSGWGRVFHKGYSALVLQYLRVPLVDRATCLESTKFTIYNNMFCAGFHEGGRDSCQGDSGGPHVTEVEGTSFLTGIISWGEECAMKGKYGIYTKVSEYVNWIKNKTKLT								kcat [1]: 6.4 s⁻¹; KM [2]: 0.0507 µM; K0.5-mut/K0.5-wt [3]: > 517
FIXa-K247N/N249S/N260S (protein) chain 1: YNSGKLEEFVQGNLERECMEEKCSFEEAREVFENTERTTEFWKQYVDGDQCESNPCLNGGSCKDDINSYECWCPFGFEGKNCELDVTCNIKNGRCEQFCKNSADNKVVCSCTEGYRLAENQKSCEPAVPFPCGRVSVSQTSKLTR chain 2: VVGGEDAKPGQFPWQVVLNGKVDAFCGGSIVNEKWIVTAAHCVETGVKITVVAGEHNIEETEHTEQNRSVIRIIPHHNYSAAINKYNHDIALLELDEPLVLNSYVTPICIADKEYTNIFLKFGSGYVSGWGRVFHKGRSALVLQYLRVPLVDRATCLRSTKFTIYNNMFCAGFHEGGRDSCQGDSGGPHVTEVEGTSFLTGIISWGEECAMKGKYGIYTKVSRYVNWIKEKTKLT	0.114 µM	3.3 s⁻¹				8.1 fold		
FIXa-D104N/K106S/Y155F/K247N/N249S/N260S (protein) chain 1: YNSGKLEEFVQGNLERECMEEKCSFEEAREVFENTERTTEFWKQYVDGDQCESNPCLNGGSCKDDINSYECWCPFGFEGKNCELDVTCNIKNGRCEQFCKNSANNSVVCSCTEGYRLAENQKSCEPAVPFPCGRVSVSQTSKLTR chain 2: VVGGEDAKPGQFPWQVVLNGKVDAFCGGSIVNEKWIVTAAHCVETGVKITVVAGEHNIEETEHTEQNRSVIRIIPHHNYSAAINKYNHDIALLELDEPLVLNSYVTPICIADKEYTNIFLKFGSGYVSGWGRVFHKGRSALVLQYLRVPLVDRATCLRSTKFTIYNNMFCAGFHEGGRDSCQGDSGGPHVTEVEGTSFLTGIISWGEECAMKGKYGIYTKVSRYVNWIKEKTKLT	0.0685 µM	0.5 s⁻¹	18%	0.5 s⁻¹	8.2e+06 M⁻¹ s⁻¹	35.8 fold		
FIXa variant Y155F/K247N/N249S/N260S (mature FIX numbering) (protein) chain 1: YNSGKLEEFVQGNLERECMEEKCSFEEAREVFENTERTTEFWKQYVDGDQCESNPCLNGGSCKDDINSYECWCPFGFEGKNCELDVTCNIKNGRCEQFCKNSADNKVVCSCTEGYRLAENQKSCEPAVPFPCGRVSVSQTSKLTR chain 2: VVGGEDAKPGQFPWQVVLNGKVDAFCGGSIVNEKWIVTAAHCVETGVKITVVAGEHNIEETEHTEQNRSVIRIIPHHNYSAAINKYNHDIALLELDEPLVLNSYVTPICIADKEYTNIFLKFGSGYVSGWGRVFHKGRSALVLQYLRVPLVDRATCLRSTKFTIYNNMFCAGFHEGGRDSCQGDSGGPHVTEVEGTSFLTGIISWGEECAMKGKYGIYTKVSRYVNWIKEKTKLT							7.9	
FIXa-Y155F/K247N/N249S/N260S (protein) chain 1: YNSGKLEEFVQGNLERECMEEKCSFEEAREVFENTERTTEFWKQYVDGDQCESNPCLNGGSCKDDINSYECWCPFGFEGKNCELDVTCNIKNGRCEQFCKNSADNKVVCSCTEGYRLAENQKSCEPAVPFPCGRVSVSQTSKLTR chain 2: VVGGEDAKPGQFPWQVVLNGKVDAFCGGSIVNEKWIVTAAHCVETGVKITVVAGEHNIEETEHTEQNRSVIRIIPHHNYSAAINKYNHDIALLELDEPLVLNSYVTPICIADKEYTNIFLKFGSGYVSGWGRVFHKGRSALVLQYLRVPLVDRATCLRSTKFTIYNNMFCAGFHEGGRDSCQGDSGGPHVTEVEGTSFLTGIISWGEECAMKGKYGIYTKVSRYVNWIKEKTKLT	0.0965 µM	1.8 s⁻¹	43%	1.8 s⁻¹	1.9e+07 M⁻¹ s⁻¹	7.9 fold		
FIXa variant D104N/K106S/K247N/N249S/N260S (mature FIX numbering) (protein) chain 1: YNSGKLEEFVQGNLERECMEEKCSFEEAREVFENTERTTEFWKQYVDGDQCESNPCLNGGSCKDDINSYECWCPFGFEGKNCELDVTCNIKNGRCEQFCKNSANNSVVCSCTEGYRLAENQKSCEPAVPFPCGRVSVSQTSKLTR chain 2: VVGGEDAKPGQFPWQVVLNGKVDAFCGGSIVNEKWIVTAAHCVETGVKITVVAGEHNIEETEHTEQNRSVIRIIPHHNYSAAINKYNHDIALLELDEPLVLNSYVTPICIADKEYTNIFLKFGSGYVSGWGRVFHKGRSALVLQYLRVPLVDRATCLRSTKFTIYNNMFCAGFHEGGRDSCQGDSGGPHVTEVEGTSFLTGIISWGEECAMKGKYGIYTKVSRYVNWIKEKTKLT							65.3	
FIXa variant K247N/N249S/N260S/R318Y/R338E/R403E/E410N (mature FIX numbering) (protein) chain 1: YNSGKLEEFVQGNLERECMEEKCSFEEAREVFENTERTTEFWKQYVDGDQCESNPCLNGGSCKDDINSYECWCPFGFEGKNCELDVTCNIKNGRCEQFCKNSADNKVVCSCTEGYRLAENQKSCEPAVPFPCGRVSVSQTSKLTR chain 2: VVGGEDAKPGQFPWQVVLNGKVDAFCGGSIVNEKWIVTAAHCVETGVKITVVAGEHNIEETEHTEQNRSVIRIIPHHNYSAAINKYNHDIALLELDEPLVLNSYVTPICIADKEYTNIFLKFGSGYVSGWGRVFHKGYSALVLQYLRVPLVDRATCLESTKFTIYNNMFCAGFHEGGRDSCQGDSGGPHVTEVEGTSFLTGIISWGEECAMKGKYGIYTKVSEYVNWIKNKTKLT							288	
FIXa variant D104N/K106S/Y155F/K247N/N249S/N260S (mature FIX numbering) (protein) chain 1: YNSGKLEEFVQGNLERECMEEKCSFEEAREVFENTERTTEFWKQYVDGDQCESNPCLNGGSCKDDINSYECWCPFGFEGKNCELDVTCNIKNGRCEQFCKNSANNSVVCSCTEGYRLAENQKSCEPAVPFPCGRVSVSQTSKLTR chain 2: VVGGEDAKPGQFPWQVVLNGKVDAFCGGSIVNEKWIVTAAHCVETGVKITVVAGEHNIEETEHTEQNRSVIRIIPHHNYSAAINKYNHDIALLELDEPLVLNSYVTPICIADKEYTNIFLKFGSGYVSGWGRVFHKGRSALVLQYLRVPLVDRATCLRSTKFTIYNNMFCAGFHEGGRDSCQGDSGGPHVTEVEGTSFLTGIISWGEECAMKGKYGIYTKVSRYVNWIKEKTKLT							35.8	
FIXa variant K247N/N249S/N260S (mature FIX numbering) (protein) chain 1: YNSGKLEEFVQGNLERECMEEKCSFEEAREVFENTERTTEFWKQYVDGDQCESNPCLNGGSCKDDINSYECWCPFGFEGKNCELDVTCNIKNGRCEQFCKNSADNKVVCSCTEGYRLAENQKSCEPAVPFPCGRVSVSQTSKLTR chain 2: VVGGEDAKPGQFPWQVVLNGKVDAFCGGSIVNEKWIVTAAHCVETGVKITVVAGEHNIEETEHTEQNRSVIRIIPHHNYSAAINKYNHDIALLELDEPLVLNSYVTPICIADKEYTNIFLKFGSGYVSGWGRVFHKGRSALVLQYLRVPLVDRATCLRSTKFTIYNNMFCAGFHEGGRDSCQGDSGGPHVTEVEGTSFLTGIISWGEECAMKGKYGIYTKVSRYVNWIKEKTKLT							8.1	
